Test results reported in US20040253646A1, “Pre-mrna splicing screening assay” (priority 2001, published 2004).
“Also recorded” adds a separate entry of the source.

Legend:
[1] = target: T1, PLRG1 (Homo sapiens, UniProt O43660); assay: GST pull-down protein binding assay, CDC5L mutants with GST-PLRG1; conditions: about 0.2 nmole GST-PLRG1, FIG. 4
T1 construct: using full-length GST-PLRG1 in pull-down experiments with each of the respective CDC5L truncation mutants; made in house; host or cells: E. coli BL21(DE3), vector pGEX-4T1
T1 sequence (O43660 1-514): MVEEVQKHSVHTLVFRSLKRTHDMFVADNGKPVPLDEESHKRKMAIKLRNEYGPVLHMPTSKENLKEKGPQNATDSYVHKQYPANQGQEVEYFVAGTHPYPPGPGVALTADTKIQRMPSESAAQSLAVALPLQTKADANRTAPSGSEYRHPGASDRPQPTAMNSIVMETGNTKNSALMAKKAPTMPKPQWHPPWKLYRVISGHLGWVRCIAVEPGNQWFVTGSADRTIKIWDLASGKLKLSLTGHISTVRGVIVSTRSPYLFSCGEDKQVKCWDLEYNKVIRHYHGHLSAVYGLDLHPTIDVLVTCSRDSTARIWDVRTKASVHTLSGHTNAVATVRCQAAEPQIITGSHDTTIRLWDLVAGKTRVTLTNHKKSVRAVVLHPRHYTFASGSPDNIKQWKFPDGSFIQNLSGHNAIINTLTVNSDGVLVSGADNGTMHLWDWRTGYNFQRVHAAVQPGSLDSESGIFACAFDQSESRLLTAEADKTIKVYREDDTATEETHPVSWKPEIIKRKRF
Excerpt: (§1) The in vitro transcription and translation experiments were done with the T7 or SP6 RNA polymerase transcription/translation systems that used rabbit reticulocyte lysate (TNT systems, Promega) and L-[^35S] methionine (Amersham, AG1094) to produce [^35S] labelled proteins according to the manufacturer's recommendations. Aliquots of these reactions were used for protein-protein interaction assays as described below.
(§2) About 0.2 nmole of the appropriate GST-fusion recombinant protein was mixed with an equimolar amount of hexahistidine tagged bacterially expressed protein or 8-10 μl of the in vitro translation reaction above and incubated in binding buffer (250 mM NaCl, 50 mM HEPES pH 7:9, 2% BSA) at room temperature for 15 minutes. The binding reaction was then added to 25 μl of glutathione sepharose beads or antibody bound protein-G sepharose and mixed at 4° C. for 1-2 hrs. The beads were washed 3-4 times in 1 ml of PBS/0.1% Triton X-100 and resuspended in 25 μl 2×SDS PAGE loading dye before heating at 70° C. for 10 minutes or 95° C. for 5 minutes. Bound proteins were separated on a 10% or 12% SDS PAGE gel after which the gel was fixed in 50% methanol/10% acetic acid for 30 minutes. The fixed gel was then soaked in a fluorographic reagent (Amplify, Amersham) for 30 minutes before drying. Protein bands were detected by autoradiography at −80° C. after 4-16 hrs. For antibody probing, the gels containing proteins from the antibody beads were treated as described above in the SDS-PAGE and Western blotting section.
(§3) Point mutations generating stop codons were inserted into the cDNAs at approximately 100 amino acids intervals by PCR using the QuikChange site directed mutagenesis kit (Stratagene) according to the manufacturer's instructions. The cDNAs were sequenced to confirm the presence of the appropriate mutations. Regions of the cDNAs involved in binding and overlapping regions were subcloned into the vectors pGEX-4T1 (Amersham-Pharmacia) or pET-30a (Novagen) for use in E. coli expression and protein-protein interaction assays.

[2] = target: T2, PLRG1 (Homo sapiens, UniProt O43660); assay: as above; conditions: in vitro translated (FIG. 6A) or bacterially expressed His-tagged (FIG. 6B, 6C) proteins
T2 construct: using full-length GST-PLRG1 in pull-down experiments with each of the respective CDC5L truncation mutants; made in house; host or cells: E. coli BL21(DE3), vector pGEX-4T1
T2 sequence (O43660 257-396 limits assumed): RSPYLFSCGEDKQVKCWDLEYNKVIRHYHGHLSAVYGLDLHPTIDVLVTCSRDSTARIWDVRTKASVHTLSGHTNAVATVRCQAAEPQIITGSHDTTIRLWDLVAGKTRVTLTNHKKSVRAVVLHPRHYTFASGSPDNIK
Excerpt: as §1, §2, §3

B1: ΔCDC5Lh: CDC5L carboxyl terminal mutant protein from region h, amino acids 602-800, expressed in E. coli (protein, UniProt Q99459 602-800, looked up, fragment)
chain: TVGFGTNNSEHITYLEHNPYEKFSKEELKKAQDVLVQEMEVVKQGMSHGELSSEAYNQVWEECYSQVLYLPGQSRYTRANLASKKDRIESLEKRLEINRGHMTTEAKRAAKMEKKMKILLGGYQSRAMGLMKQLNDLWDQIEQAHLELRTFEELKKHEDSAIPRRLECLKEDVQRQQEREKELQHRYADLLLEKETLKS
In the case of B1, the “pull-down of in vitro translated CDC5L mutants by full-length GST-PLRG1” value [1] is reported as “pulled down; also recorded: higher binding efficiency to PLRG1 than ΔCDC5Lg” and the “pull-down of CDC5L mutants by GST-ΔPLRG1f (amino acids 257-396)” value [2] is reported as “will interact”.
